The supplement of paper PMC9170038

Test system: MS2 coat protein
Experiment: apparent KD of MS2 coat protein; higher = weaker reporter binding
Conditions: Eterna round: R107
How it was run: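 Illumina sequencing clusters were used for on-chip transcription of designed RNA switches. Titration with SNAP-549-labelled MS2 coat protein followed, in twofold steps from 0.7 or 1.5 nM to 3 µM in 100 mM Tris-HCl pH 7.5, 80 mM KCl, 4 mM MgCl2, without or with constant ligand. Apparent KD is each design's median of fits to normalised cluster binding curves.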

[1] = input ligand: theophylline 20 uM
[2] = input ligand: theophylline 2 mM
[3] = input ligand: tryptophan 2.4 mM

Sequence	apparent KD of MS2 coat protein (input ligand: arginine 13.2 mM) [nM]	apparent KD of MS2 coat protein [1] [nM]	apparent KD of MS2 coat protein [2] [nM]	apparent KD of MS2 coat protein (input ligand: none) [nM]	apparent KD of MS2 coat protein [3] [nM]
CUAGAUGGAAACGUCUGGACGCACAAGCGACGAGGACCGGUACGGCCGCCACUCGAAGAGUGGUGGACAUGAGGAUCACCCAUGU [Design 4 MOD]	36.5	87.4	78		
GGUCGCCAACAUGGGUCGGUGAAAUGGGAAGGAGCGAGCGAGAGCUCAGGUAGGUCGCCCAAACAUGAGGAUCACCCAUGUAAUA [SSArg-A #28 UUU adds V2]	21	113	74.8	125	53.4
AGUAGACACGCGGCCGCCACUUGAGGAUCACCCAGGUGGUGUGUACUUGAAAACAAGUGCACAUCAAGGACCGGGCGUGUCUACA [Omei Tryp B SS D v2]	12.9	17.1	13.9		27.3
AUACCGAGUGAGUCGUGUUUCUUUUCAGAUACCAGACUUUUCGUUGUCCCUUGGCAGCUGUUUUACAUGAGGAUCACCCAUGUUG [#28 Exclusion-TheophyllineA]	16.3	18.1			15.2
CGCAACCAACAUGAGGAUCACCCAUGUGAAGGAGCGCCGAAGAAGGCAGGUAGGUCGCACAUGAAUAAAUCAUGUAAAAGGUUGC [MAT - Exclusion Arginine A - Mod of Eli - D19]	17.7	64.5	71.2	51.4	40.9
GAGACGUCGGGAAGGAGCGCAUCCAAACCACACAUGAGGAUCACCCAUGUAUAAAUAUGCAUGCAGGUAGGUCGCCCGGUGUCCA [Xegeisge]	49.9	120	114	85.7	86.1
UAGUUGCUGACGGCCGCCACUAGAACAUGAGGAUCACCCAUGUAUUCUAGUGGACAUGGGUGGACUAGGACCGGGUCAGCAACAU [(Trp1)-(Ms2)-(T)'-(M)'-(Trp2)_Design9]	21	37.8	21	20.6	30.8
AACAUACAAUAAUAGGUGGAUAUAAGGCGGCGAGGACCGGUACGGCCGCCACUCGCGUACAUGAGGAUCACCCAUGUCUGAAACU [Same State - Tryptophan A (Freestyle 3)]	16.8	26.8	27		
UGUGUCGUCUGAAGGAGCGGCUCUUGAUCCUCGUGAGACAUGAGGAUCACCCAUGUCUCGAGCCAGGUAGGUCGCAGGCGGCACA [#26 Exclusion - Arginine B]	7.08	12.8	13.6	16.2	14.1
UGAGAGGGCAGAAGGAGCGACAUGAGGAUCACCCAUGUCUCCCGUUAUGGGAGUUCUUUAGGUCAGGUAGGUCGCUGGCCUCUCA [#1 Exclusion - Arginine B Attempt #9 (Inspired by Omei)]	54	135	146	117	99.5
UGAUAUGUAGGAAGGAGCGCAUACUUCACAUGAGGAUCACCCAUGUCAAGACGUGAGUCAGUGCAGGUAGGUCGCCUAGUUAUGA [Same State - Arginine B (Freestyle 20)]	30.2	41	36.9	44.9	36
UGUAUGGACUGAAGGAGCGGUAGAUAACCUGAGGAUCACCCGGGUAAUAAAGGCGAAAGCCACCAGGUAGGUCGCAGUCCAUACU	93.3	173	321	206	262
GGUUGGUGUGGAGACAUAUUGAUUACUGAAGGAGCGGGAAUAAACCCAGGUAGGUCGCAGAGAUCCACAUGAGGAUCACCCAUGU [!0.P]	121	42.8	41.2	44.8	22.4
AAUACCGGUCCUCGAGGGUGAUCCUCAUGACGAGGACCGGUACGGCCGCCACUCGAUAACAUGAGGAUCACCCAUGUAAUCGAGU [|T'-M'-Trp-Ms2|_Design7b]	34.1	70.4	72.4		
CCGUUUUAUGGCGACAUAGGGCGGACUGAAGGAGCGGUGAAUAAGCCAGGUAGGUCGCAGAGAUCCACAUGAGGAUCACCCAUGU [!0.aD]	322	62.2	63.5	52.6	77.5
GGGAGAUGAAUAGAAUGAGAUGACACAGAAGGAGCGUGAAUUAACACAGGUAGGUCGCUGACAACAUGAGGAUCACCCAUGUAUU [Same State Arginine A GF3]	18.1	21.3	19.5	15.2	18.9
ACAUGAGGAUCACCCAUGUAUGACUAUCCUCGAGGACCGGUACGGCCGCCACUCGAACGAGUGGCUCGCGAGUGCGCACUCGCGA [5' end]	11.7	16.6	11.3	13.3	10.3
UUAUUUAUAUUAGAUACCAGUUUAAUGGCCGCAAAUCCUGACAUGAGGAUCACCCAUGUAAGCCCUUGGCAGCUGGUAUGGGUUU [XTheo B #26]	25.2	25.2			20.5
UAUCCACAUGAGGAUCACCCAUGUAGGGAAGGAGCGGUGAUUUCACCAGGUAGGUCGCCUUGCUCAGGGUUGCCGGUGGAAUCGU [Exclusion - Arginine A (Freestyle 34)]	24.9	19.7	13.3	12.7	9.73

Sequence	apparent KD of MS2 coat protein (input ligand: arginine 13.2 mM) [nM]	apparent KD of MS2 coat protein [1] [nM]	apparent KD of MS2 coat protein [2] [nM]	apparent KD of MS2 coat protein (input ligand: none) [nM]	apparent KD of MS2 coat protein [3] [nM]
AUAUAUACAUGAGGAUCACCCAUGUUAUUACGAGGACCGGUACGGCCGCCACUCGAUAGAGUAGAAGUAAAUUUUAAUUCAUGUA [JR_SSTryptoA_Sub007]	14.6	15.7	14.4		
ACAUUUAACUGAAGGAGCGUGAAUAACAUGAGGAUCACCCAUGUAACUUAGAUUCUUAUAUCACAGGUAGGUCGCAGACUAAUGA [JR_ExcArginiB_Sub012]	24.9	25.7	21.5	17	19
UUUAAAAUCAGAAGGAGCGUGAUAAACAUGAGGAUCACCCAUGUCGAAAAUUUAAUAUAAUCACAGGUAGGUCGCUGUAAUAUUU [Same State - Ariginine B]	14.2	18.6	16.5	14	14.2
CGAUAUGGGACGGCCGCCACUAUUAUGUAACAAAAUAAACAUGAGGAUCACCCAUGUACAUGGGAUAGGACCGGGUCCUAUAACG [#22 Same State - Tryptophan B]	29.6	42.5	46.2		
ACAUGAGGAUCACCCAUGUUCCUCGCCGAUACCAGUGAAGAAGAACGCCCUUGGCAGCGGAAAGAAUAUUUUGGAGAUGAGGUAU [6.W]	120	219			165
UGACAUUGCUCAGAUACCAGACAUGAGGAUCACCCAUGUGCCAAAUACGUACAAAUAAAUGUCCCUUGGCAGCUGAGCAAUGUCU [TheoBX 12 #MS2Left #Theo2]	16.2	22.2			14.4
GGGCCCGGGCCGGAAACGGCCCGGGCCCUGCGAGGACCGGUACGGCCGCCACUCGCUCGAGUGGGUACAUGAGGAUCACCCAUGU [#17 Exclusion Tryptophan A]	17.7	45.8	33.3	28.4	31.9
CUAUAAUGAAAACAUUAUAGAGUGGGUGAACGAGGACCGGUACGGCCGCCACUCGGACAUGAGGAUCACCCAUGUCCAUGUGAAA [AstrosExyTryA#24]	11.2	18.9	17.7	15.6	31.9
GGUGGCGGGACUGAUACCAGCCACCACCGAUAGACCACAUGAGGAUCACCCAUGUUGGGUGGCCCUUGGCAGCAGUCUUGCUGCU [#1 Same State - Theophylline B Attempt #13 (HarryS)]	64.1	409			586
UGUAUGGACUGAAGGAGCGGGUAAUAAACCUGAGGAUCACCCAGGUAAUAGGCGAAAGCCACCCAGGUAGGUCGCAGUCCAUACU	9.98	16.1	15.1	14.1	13.2
AGCGCUAUGCAUGAUACCAGCUACAUGAGGAUCACCCAUGUGCGUCAGAAAUGACUGUGUAGCCCUUGGCAGCAUAAAGCAUGUA [Exclusion - Theophylline B (Freestyle 9)]	19.4	24.1			17.2
AUUUGGCGUAGUGUUGCUCGUGGGAUAAAACGAGGACCGGUACGGCCGCCACUCGAUGAUUAACAUGAGGAUCACCCAUGUAAAU [theeternabot_exclusion_MS2_Trp_A_22]	17.5	30.6	32.2		
UCUGUUUGCUUUGUUUGUUUCUUCUUUGAGCGAGGACCGGUACGGCCGCCACUCGGGUUACAUGAGGAUCACCCAUGUGGUUUCU [Interesting]	72.3	163	149		
AUGCAUGUCAGAAGGAGCGUCAGUAACAUGAGGAUCACCCAUGUAACAUUGAAUUCGAUGAGACAGGUAGGUCGCUGAAUAGUAA [JR_SSArginiB_Sub019]	26.4	37.7	35.9	30.6	27.8
GCAAUACAUGAGGAUCACCCAUGUGCAGAUACCAGAGGUGCGUGCCUCCCUUGGCAGCUGCGACGCUCUGGAAGCUUGUGUGUCU [Exclusion Theophylline A GF27]	18.4	26.2			21.2
ACAUUUAACUGAAGGAGCGUGAUAAACAUGAGGAUCACCCAUGUACCAAAGAUUUUCAGAUCACAGGUAGGUCGCAGACUAAUGA [JR_ExcArginiB_Sub015]	12.8	16.7	12.6	11.7	13.3
CAAGAGUUGUACAUUGUGAGGCGUCGGGAACGAGGACCGGUACGGCCGCCACUCGAAAAUUAACAUGAGGAUCACCCAUGUACAC [theeternabot_exclusion_MS2_Trp_A_35]	36.1	72.7	82.8		
CCUAACCGAUCGGCCGCCACUGACCGGUACCUCUUCGAAACCCGCCACAUGAGGAUCACCCAUGUCAGGACCGGGAUUGCACAGG [Inxeus]	14.4	23	17.8	17.2	38.1
AUAAAUAUAACCGAUACCAGCCUUAUACAUGAGGAUCACCCAUGUUAUGCUUCCUUUCUUGGCCCUUGGCAGCGGAAAUGGGUAA [SSTheo B #13]	36.2	48.4			44.8
